Like-named read-outs stand apart in the source and are kept apart here. Values belong to the binder of their own block, whether it stands above or below them.
Experiments:
[1] = molecular target: T1, rhesus monkey TNFR2 expressed on CHO cells (CHO.mkHFB3) (rhesus monkey, UniProt F7GUU0 22-457); experiment: FACS cell binding
T1 chain: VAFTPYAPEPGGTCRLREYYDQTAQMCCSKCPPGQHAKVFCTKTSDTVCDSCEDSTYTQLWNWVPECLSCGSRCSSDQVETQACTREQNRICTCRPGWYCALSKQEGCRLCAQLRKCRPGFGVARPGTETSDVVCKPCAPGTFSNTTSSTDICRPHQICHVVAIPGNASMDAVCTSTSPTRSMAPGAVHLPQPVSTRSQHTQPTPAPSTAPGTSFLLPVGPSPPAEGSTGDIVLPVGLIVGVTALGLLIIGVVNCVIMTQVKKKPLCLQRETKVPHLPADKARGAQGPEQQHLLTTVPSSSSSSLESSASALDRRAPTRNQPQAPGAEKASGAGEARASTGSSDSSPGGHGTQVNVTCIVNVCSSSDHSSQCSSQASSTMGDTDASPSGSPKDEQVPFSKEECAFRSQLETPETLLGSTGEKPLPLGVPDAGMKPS

[2] = molecular target: T1, rhesus monkey TNFR2 expressed on CHO …; experiment: FACS cell binding
[3] = molecular target: T2, His-tagged recombinant human TNFR2 (human, UniProt P20333 23-257); experiment: ELISA
T2 chain: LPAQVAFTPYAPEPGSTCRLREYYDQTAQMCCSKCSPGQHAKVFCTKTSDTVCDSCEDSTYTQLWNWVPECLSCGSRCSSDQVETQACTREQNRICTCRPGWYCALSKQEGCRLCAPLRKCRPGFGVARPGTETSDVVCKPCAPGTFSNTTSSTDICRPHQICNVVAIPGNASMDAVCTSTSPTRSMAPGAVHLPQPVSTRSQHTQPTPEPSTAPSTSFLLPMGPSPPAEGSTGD

[4] = molecular target: T3, human TNFR2 expressed on cells (CHO.hHFB3 / CHO.hTNFR2 cells; primary human T cells) (human, UniProt P20333 23-461); experiment: FACS cell binding
T3 chain: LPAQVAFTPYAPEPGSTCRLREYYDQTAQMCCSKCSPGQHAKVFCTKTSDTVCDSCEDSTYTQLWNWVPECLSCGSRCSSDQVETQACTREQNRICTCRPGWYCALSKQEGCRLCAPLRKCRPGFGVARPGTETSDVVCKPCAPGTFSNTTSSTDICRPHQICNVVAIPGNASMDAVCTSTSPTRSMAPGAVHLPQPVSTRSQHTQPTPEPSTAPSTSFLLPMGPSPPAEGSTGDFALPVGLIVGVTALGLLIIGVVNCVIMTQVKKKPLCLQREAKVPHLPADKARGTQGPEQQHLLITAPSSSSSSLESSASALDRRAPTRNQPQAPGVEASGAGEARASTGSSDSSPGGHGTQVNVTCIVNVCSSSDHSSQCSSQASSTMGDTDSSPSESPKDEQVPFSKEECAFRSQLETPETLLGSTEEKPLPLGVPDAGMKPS

[5] = molecular target: T2, His-tagged recombinant human TNFR2; experiment: BLI (AHC biosensor)
[6] = molecular target: T2, His-tagged recombinant human TNFR2; experiment: Octet BLI
[7] = molecular target: T3, human TNFR2 expressed on cells …; experiment: FACS cell binding
[8] = molecular target: T3, human TNFR2 expressed on cells …; experiment: FACS cell binding; IgG1AA format
[9] = molecular target: T1, rhesus monkey TNFR2 expressed on CHO …; experiment: FACS cell binding
[10] = molecular target: T3, human TNFR2 expressed on cells …; experiment: FACS cell binding; IgG1AA format

B1: HFB3-14-hG1 (mouse monoclonal antibody) (antibody, V domains shown)
VH: EVQLQQSGPELVKPGASVRISCKASGYTFTDYYMNWVKQSHGKSLEWIGDINPNDGGTTYSQKFKGKATLTVDKSSSTAYMELRSLTSEDSAVYFCAREGNYYAYDVRVWYFDVWGTGTTVTVSS
VL: DIQMTQSPASLSVSVGETVTITCRSSENIYSNLAWYQQKQGKSPQLLVYAATNLADGVPSRFSGSGSGTQYSLKINSLQSEDFGSYYCQHFWGTPWTFGGGTKLEIKR
EC50 [1]: 2.15 nM
EC50 [2]: 2.13 nM

B4: HFB3-1-hG1 (mouse monoclonal antibody) (antibody, V domains shown)
VH: EFQLQQSGPELVKPGASVKISCKASSYSFTDYNMNWVKQSNGKSLEWIGIIFPKYGTTSYNQKFKGKATLTVDQSSSTAYMQLNSLTSEDSAVYYCATDGGTWYFDVWGTGTTVTVSS
VL: QIVLTQSPALMSASPGEKVTMTCSASSSVTYMYWYQQKPRSSPKPWIYLTSNLASGVPARFSGSGSGTSYSLTISSMEAEDAATYYCQQWSSNPPTFGSGTKLEIKR
EC50 [3]: 0.06 nM
Kd [6]: 6.3 nM
EC50 [9]: 5.37 nM
EC50 [4]: 0.48 nM
EC50 [2]: 0.6 nM
Kd [5]: 1.4 nM
EC50 [10]: 0.905 nM

B5: HFB3-1hz6-hG1 (humanized monoclonal antibody) (antibody, V domains shown)
VH: QVQLVQSGAELKKPGASVKVSCKASSYSFTDYNMNWVRQAPGQSLEWMGIIFPKYGTTSYAQKLQGRVTLTTDTSTSTAYMELRSLRSDDTAVYYCATDGGTWYFDVWGTGTTVTVSS
VL: DIQLTQSPSFLSASVGDRVTITCRASSSVTYMYWYQQKPGKAPKPWIYLTSNLASGVPSRFSGSGSGTEYTLTISSLQPEDAATYYCQQWSSNPPTFGSGTKLEIKR
Kd [6]: 15.2 nM
EC50 [9]: 19.1 nM
EC50 [10]: 4.07 nM

Results, then the binder that gave them:

EC50 [3]: 49.8 nM
EC50 [4]: 4.17 nM
EC50 [2]: 4.85 nM
Kd [5]: 4.2 nM
B2: HFB3-18-hG1 (mouse monoclonal antibody) (antibody, V domains shown)
VH: EVKLEESGGGLVQPGGSMKLSCAASGFTFSDAWMDWVRQSPEKGLEWVAEVRNKANNHATYYAESVKGRFTISRDDSKSSVYLQMNSLRAEDTGIYYCTRSVGGYGTTYWYFDVWGTGTTVTVSS
VL: DIVMTQSPSSLSVSAGEKVTMSCKSSQNLLNSGNQKNYLAWYQQKPGQPPKLLIFGASTRESGVPDRFTGSGSGTDFTLTISSVQAEDLAVYYCQSEHSYPYTFGGGTKLEIKR

Kd [6]: 2.8 nM
EC50 [7]: 1.77 nM
EC50 [1]: 0.7 nM
EC50 [8]: 2.9 nM
B3: HFB3-14hz1c-hG1 (humanized monoclonal antibody) (antibody, V domains shown)
VH: QVQLVQSGAEVKKPGSSVKVSCKASGYTFTDYYMNWVRQAPGQGLEWMGDINPNDGGTTYAQKFQGRVTITADESTSTAYMELSSLRSEDTAVYFCAREGNYYAYDVRVWYFDVWGQGTTVTVSS
VL: DIQMTQSPSSLSASVGDRVTITCGASQDIITYLNWYQQKPGKAVKLLIYSTSSLNSGVPSRFSGSGSGTDFTLTISSLQPEDFATYYCQQYSELPYTFGGGTKVELKR

From patent US20230045791A1 (published 2023)
